According to the nanobody polyreactivity screen of Harvey et al. (2022):

Test: yeast display, Sf9 membrane polyspecificity reagent, FACS + sequencing; frameworks hold sequencing errors
Method in brief: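 A nanobody's polyreactivity label depends on the gate it was sorted from. Yeast display cells were stained with 10% biotinylated, detergent-solubilized Sf9 membrane reagent for 1 hour at 4 °C, enriched on streptavidin microbeads and sorted by FACS. The low and high (top ~1%) gates were set on anti-HA fluorescence for expression and streptavidin fluorescence for reagent binding.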

QVKLVESGGGLVQAGGSLRLSCAASGSTFHVYAMGWYRQEPGKESELVAGITSSGYSTYYADSVKGRFTISRDNAKNTVYLKMNSLKPEDTAFYYCNADIRGPYYYHRYDYWGQGTQVTVSS
polyreactivity (PSR sort gate): low polyreactivity

QVKLVESGGGLVQAGGSLRLSCAASGSTYHSNAMGWYRRAHGKEMEFVASISIGGSTNYADSVKGRYTISRDNAKNTVYLQMNSLKAEDTAVYYSATEPNPRRPRVDYDYWGQGTQVTVSS
polyreactivity (PSR sort gate): low polyreactivity

QVKLVESGGGLVQAGGSLRLSCCASGSTFSPNTMGRYRQAPGKDREVVAAITYRGANTYYADSVKGRFTISRDNAKLTVYLQMNSLKPEDTAVYYCSAVYAYHHVGFGYWGQGTQVTVSS
polyreactivity (PSR sort gate): low polyreactivity

QVKLVESGGGLVQAGGSLRLSCDASGSTFIANTMGWYRQAPGKERELVAAITDSGGSTYYADSVKGRFTISRDNAKNTVYLQMNSLKPEDTAVYYCNADYVYVFIRAWSYDYWGQGTQVTVSS
polyreactivity (PSR sort gate): low polyreactivity

QVKLVESGGGLVQAGGSLRLSCPASGSTFYYNAMGWYRQAPGKERELVARISRSGGSTYADSVKGRFTISRDNAKNTVYLQMNSLKPEDTAVYYCNADAYGTPEFTSYAVRYDYWGQGTQVTVSS
polyreactivity (PSR sort gate): low polyreactivity

QVKLVESGGGLVQAGGSLRLSCSASGLTLSGNAMGWYRQAPGKERELVAAITGRGGSTTYADSVKGRFTISRDNAKNTVYLQMNSLKPEDTAVYYCPATRYSWHNRGSRRHRYDYWGQGTQVTVSS
polyreactivity (PSR sort gate): low polyreactivity

QVKLVESGGGLVQAGGSLRLSFAASGFTCNANAMGWYRQAPGQERELVAAISLSGGRTYYADSVKGRFTISRDNAKNTVYLQMNSLKAEDTAVYYCAASPDGSFRRFSRVVSGDYWGQGTQVTVSS
polyreactivity (PSR sort gate): high polyreactivity

QVKLVESGGGLVQAGGSLRLSLQPPDSPSTTMLWDGIDRRLAKKGSWLPVFLPSGGTTYADSVKGRFTISRDNAKYTVYLQMNSLKPEDTAVYYCNADLSDVAVTDHDYWGQVTQVTVSS
polyreactivity (PSR sort gate): low polyreactivity

QVKLVESGGGLVQAGGSLRLSWAASGSILNRYAMGWYRQAPGKERELVAAITGSSGSTYYADSVKGRFTISRDNAKNTVYLQMNSLKPEDTAVYYCATAFRNGRGSYYYWGQGTQVTVSS
polyreactivity (PSR sort gate): high polyreactivity

QVKLVESGGGLVQAGGSLRLTCAASGSTLYAYAMGRYRQAPGKERELVAAISSRAVRTYYADSVKGRFTISRDNAKNTVYLQINSLKPEDTAVYYCAARGQAYSGDRMYYWGQGTQVTVSS
polyreactivity (PSR sort gate): high polyreactivity

QVKLVESGGGLVQAGGTLPITCAASGRTFARYAMVWYRQAPGKERELVSAITGRSGTNTYYADSVKGRFTISRDNAKNTVYLQMNSLKPEDTAVYYCAADLQGYYFRGRWTSYDYWGQGTQVTVSS
polyreactivity (PSR sort gate): high polyreactivity

QVKLVESGGRLVQAGGILRLSSPASGFIFRGYARGWYRQAPGKERELVAAINSGGSTNYADSVKGRFTISRDNAKNTVYLQMIRLKPEETAVYYCAARVKTSYRYLRTYNYWGLGTQVTVSS
polyreactivity (PSR sort gate): high polyreactivity

QVKLVESVGALVQAGGSHRLSCAASGNTFPWYVLGWYRHATGKERELLAAITSSGSTTYYADSVKGRFTISRDNAKNTVYLQMNSLKPDDNAVYYCAARNYGPYDYWGPGTQVTVSS
polyreactivity (PSR sort gate): low polyreactivity

QVKLVYSGGGLVQAGGSLRLSCAASVSIFYYYGMGWYRQAPVKERQLVAAITYRGTRTYYADSGKGRFTFSRDNAKTTVYLQMYSLKAEDTALYYCAAERRIYSSDSWGQGTQVTVSS
polyreactivity (PSR sort gate): high polyreactivity

QVKRVESGGGLVQAGGSLRLSCAASGSTFYRYAMGWYRQAPGKERELVAAINGRGGRTYYADSVKGRFTISRDNAKNTVYLQMNSLKPEDTAVYYCAARGYAPDTYGYWGQGTQVTVSS
polyreactivity (PSR sort gate): high polyreactivity

QVLLQESGAGLVQAGGSLRLSCAASGTISTDIRMGWYRLAPGKEREFVASIDGCSTTYYADSVKGRFTISRDNAKNSVYLQLNSLKPEDTAMYYCAAREDTEFYLYYWGQGNQVTVSS
polyreactivity (PSR sort gate): low polyreactivity

QVLLQESGGGLVQAGGSLRLSCAASGTISTDIRMGWYRLAPGKEPEFVASIDGCSTTYYADSVKVRFTISRDNAKNTVYLQMNSVIPEDSAMYYCAAREATEFYLYYWGQGTQVTVSS
polyreactivity (PSR sort gate): low polyreactivity

QVLLQESGGGLVQAGVSLRLCCAASGYISGDQFMGWYRQAPGKEREFVAGIGNGTNTNYADSVKGRFTTSRDNAKNTVYLQMNSLKQEDTAVYYCAADPSDGSTLAYWGHGTQVTVSS
polyreactivity (PSR sort gate): high polyreactivity

QVLLQESGGGLVQAGVSLRLSCAASGNIFSAGGMGWYRQAPVNERELVAGIGTGTSTNYADSVKGRFTISRDNAKNTVYLQMNSLKPEDTAVYYCAAAYYSGLSHWYWGQGTQVTVSS
polyreactivity (PSR sort gate): low polyreactivity

QVLLQESGGLVQAGCSLRMSCAESGSISTALSMGWYRQAPGKERELVATISDGASTNYADSVKGRFTISRVNAKNTLYLQMNSLKPEDTEVYYCAAQSQYRPDHRYWGQGTKVTVSS
polyreactivity (PSR sort gate): high polyreactivity

QVLLVESGGGLVHAGGSLRVSCASSGFTFKENAMGWYRQAPGKERELVAAISSTGGSTYYADSVKGRFTISRDNAKNTVFLLMNSLKPEDTAVYYCAASTYWYDGDYWGQGTQVTVSS
polyreactivity (PSR sort gate): high polyreactivity

QVLLVESGGGLVQAGGSLRLSCAASGIIFYRNAMGWYRQAPGKERELVAVITASGGHTYYADSVKGRFTISRDNAKNTVYLQMNSLKPEDTAVYYCNRELTSPRRWHVSRADDYWGQGTQVTVSS
polyreactivity (PSR sort gate): low polyreactivity

QVLLVESGGGLVQAGGSLRLSCAASGISIRAKAMGGYRQAPGKVRELVAAITWSGGDPYYADSVKGRFTISRDNAKNTVYLQMNSLKPEDTAVYYCNALQPGLGSPLGEYDYWGQGTQVTVSS
polyreactivity (PSR sort gate): low polyreactivity

QVLLVESGGGLVQAGGSLRLSCAASGITFGRNTMGWYRQAPGKDRELVAAIDSGGNTYADSVKGRFTISRDNAKNTVSLQMNSRKPEDTAVDYCAVDGGEFSSYGYWGQGTQVTVSS
polyreactivity (PSR sort gate): low polyreactivity

QVLLVESGGGLVQAGGSLRLSCAASGLTFVYVMGWYRQAPGKERELVAGISYSAGRTYYADSVKGRFTISRDNAKNTVYLQMNSLKPEDTAVYYCAATKRGRPQRGYWGQGTQVTVSS
polyreactivity (PSR sort gate): high polyreactivity

QVLLVESGGGLVQAGGSLRLSCAASGYNFFTKAMGWYRQAQGKERELVAAISKSGGRTYYADSVKGRFTISRDNAKNTVYLQMNSLTPEDTAVYYCAARSETSYYPSRYDYWGQGTQVTVSS
polyreactivity (PSR sort gate): high polyreactivity

QVLLVESGGGLVQAGGSLRLSCAAWSIFYLNAMGWYRQAPGKERELVAAISSAGSTYYADSVKVRFTISRDNAKNTVYLQMNSLKPEDTAVYYCAAYWYDSPGVTEIWYDYWGQGTQVTVSS
polyreactivity (PSR sort gate): low polyreactivity

QVLLVESGGGLVQAGGSLRLSCAAYGRTFYGYAMGWYRQAPGKERELVATISSGDSTNYADSVKGRFTISRDNAKNTVYLQMNSLKPEDTAVYYCAAQGGDGVLALYYYWGQGTQVTVSS
polyreactivity (PSR sort gate): low polyreactivity

QVLLVESGGGLVQAGGSLRLSSAASGSIFNRYAMGWYRQAPGKDSEFVAAITYSGGSTYYADSVKGRFTISRDNAKNNVYLQMIRVKPEDTAVYYCAKAYYPKGRYGFDYWGQGTQVTVSS
polyreactivity (PSR sort gate): high polyreactivity

QVLLVESGGGLVQAGGSVRLICAASGSIFKKYALGWYRPATGEERELVAAISWRGGRTYYADSVTGRFTISRDNAKNTVFLQMNSLKPEDTAVYYCAKERYVSYRGGPWVDYWGQGTQVTVSS
polyreactivity (PSR sort gate): high polyreactivity

QVLLVESRGALVQAGGSLRLSCAASGSTFYWYAMGRYRQAPGKERELVASITRSGVRTYYADSVKGRFTISRDNGKNTVYLQMNSLKPEDTAVYYCAAERYYFPRSFRYGYWGQGTQVTVSS
polyreactivity (PSR sort gate): low polyreactivity

QVLLVESRGGLVQAGGSLRLSCAASGSIFFYYAMGWYRQAPGKETELVASISWSGGSTYYADSVKGRFTISRDNAKNTVYLQMNSLKPEDTAVYFCAKVTITFSWETLYDYWGQGTQVTVSS
polyreactivity (PSR sort gate): low polyreactivity

QVNLVESGGGLVQAGGSLRLSCAAYGRTFRTNAMRCNRQEPGKERELFAAITYSGDSTYYADSVKGRFTISRDNEKNTVYLQMNSLKPEDTAVYYCNARLLSGPGYDYWRQGTQVTVSS
polyreactivity (PSR sort gate): low polyreactivity

QVPLVDSGGGLVQAGGSVRLSCAASGSIFYVYALGWYRQAPGTERELVAAINPSGGSTYADSVKGRFTISRDNAKISVYLQMYSLKTEDNAVSYCAAEPEWWWRGYGYWGQGKQVTVSS
polyreactivity (PSR sort gate): low polyreactivity

QVPLVEAGGGLVQAGGSLRVSCAASGITFQLYGMGWYSQAPGKERELVAAITGSDGITYYADSVKGRFTISLDNAKNTVYLPMNSLKPEDTAVYYCAAEWWDYWNEYDYWGQGTQVTVSS
polyreactivity (PSR sort gate): high polyreactivity

QVPLVESGGGLVQAGGILRISCAATGSSFRFKAMGWYRQAPGQERELVAAISRRGSSTYYADSVKGRCTISRDNAKNRVYLQMNSLKAEDTAVYYCAASGGYRPHRYQIGDYDNWGQGTQVTLSS
polyreactivity (PSR sort gate): high polyreactivity

QVPLVESGGGLVQAGGSLRISCAASFRYNTMGWYRQAPGKERELVAAISGSGSRTYYADSVKGRFTISRDNAKITVYLQMNSLKPEDTAVFYCAALSYRNSEVGTSRGDYWGQGTQVTVSS
polyreactivity (PSR sort gate): high polyreactivity

QVPLVESGGGLVQAGGSLRLSCAASGGIFGRYAMGWYRQAPGKERELVAALSARGGSSYYADSVKGRFTISRDNAKNTVYFQMNSLKPEDTAVYYCNALWVSYYTFRMDYWGQGTQVTVSS
polyreactivity (PSR sort gate): high polyreactivity

QVPLVESGGGLVQAGGSLRLSCAASGITIRGYAMGWYRQAPGKDRELVAAINTRTSTYYADSVKGRFTISRDNAKHTVYLQMNSLKPEDTAVYYCNRDPVYYDYDYWGQGTQVTVSS
polyreactivity (PSR sort gate): low polyreactivity

QVPLVESGGGLVQAGGSLRLSCAASGRIFKSNAMGWYRQAPGKERELVAAISYSGGSTYYADSVKGRFTISRDNAKKTVYLQMNRLKPEDTAVYYCNKYFRREYDYWGQGTQVTVSS
polyreactivity (PSR sort gate): high polyreactivity

QVPLVESGGGLVQAGGSLRLSCAASGRSFTSNAMGWYRQAPGKEREFVAAITIRGGSTYYADSVKGRFTISRDNATNTVYLQMHSLKPEDTALYYCAVGRRKTWGDYWGQGTQVTVSS
polyreactivity (PSR sort gate): high polyreactivity

QVPLVESGGGLVQAGGSLRLSCAASGSIFNIYALGWYRPAPGKVWELVAGISWDSGSTFYADSVKGRVTISRDNAKNTVYLQMNSLKPEDTAGYYCNVVYETYCDEFDYWGQGTQVTVSS
polyreactivity (PSR sort gate): high polyreactivity

QVPLVESGGGLVQAGGSLRLSCSASGIIFNAYTMGWYRQAPGKESELVAAITTAGSTHYADSVKGRFTISRDNAKNTVYLQMNSLKPEDTAVYYCNADTPVGKYAHLACYQDYDDWGQGTQVTVSS
polyreactivity (PSR sort gate): low polyreactivity
